Test results as given in publication PMC9886983, “Mechanism of regulation of the Helicobacter pylori Cagβ ATPase by CagZ” (Nature Communications, 2023).
Where a chain is given by its changes, count along the chain named. Names may count otherwise.

Assays:
[1] = target: Cagβ-AAD1 D309A (Helicobacter pylori 26695); test: ITC; ITC-200 at 25 °C; 20 mM Tris pH 8.0, 150 mM NaCl; Cagβ proteins (20 µM) in the cell, CagZ proteins or peptides (200 µM) in the syringe
[2] = target: Cagβ-AAD1 E396A (Helicobacter pylori 26695); test: as above
[3] = target: Cagβ-AAD1 K388A (Helicobacter pylori 26695); test: as above
[4] = target: Cagβ-AAD1 N449A (Helicobacter pylori 26695); test: as above
[5] = target: Cagβ-AAD1 R375A (Helicobacter pylori 26695); test: as above
[6] = target: Cagβ-AAD1 Y374F (Helicobacter pylori 26695); test: as above
[7] = target: Cagβ-AAD1 N452A (Helicobacter pylori 26695); test: as above
[8] = target: Cagβ-AAD1 N361A (Helicobacter pylori 26695); test: as above
[9] = target: Cagβ-AAD1 (all-alpha domain of Cagβ, residues 289–488) (Helicobacter pylori 26695) (UniProt O25260); test: as above
[10] = target: Cagβ-AAD1 F358A (Helicobacter pylori 26695); test: as above
[11] = target: Cagβ-AAD1 E314A (Helicobacter pylori 26695); test: as above
[12] = target: Cagβ-AAD1 N365A (Helicobacter pylori 26695); test: as above
[13] = target: Cagβ-AAD1 D356A (Helicobacter pylori 26695); test: as above
[14] = target: Cagβ-AAD1 E462A (Helicobacter pylori 26695); test: as above
[15] = target: Cagβ-AAD1 E350A (Helicobacter pylori 26695); test: as above
[16] = target: Cagβ-AAD1 S453A (Helicobacter pylori 26695); test: as above
[17] = target: Cagβ-AAD1 D335A (Helicobacter pylori 26695); test: as above
[18] = target: Cagβ-AAD1 T338A (Helicobacter pylori 26695); test: as above
[19] = target: Cagβ1 (soluble region of Cagβ, residues 166–748) (Helicobacter pylori 26695) (UniProt O25260); test: mass photometry; Cagβ1/CagZ complex (co-expressed, co-purified) at 0.06 µM; OneMP instrument (Refeyn)
[20] = target: T1, CagZ (residues 2-199), wild type (Helicobacter pylori 26695, UniProt B5Z6P9 2-199); test: ITC; ITC-200, 25 °C, 20 mM Tris pH 8.0, 150 mM NaCl; Cagβ proteins (20 µM) in the cell, CagZ proteins (200 µM) in the syringe; settings: both partners purified
T1 construct: CagZ of Helicobacter pylori 26695, residues 2-199; also called CagZ-WT; source: E. coli BL21 star (DE3), purified (Ni-NTA, TEV, second Ni-NTA, SEC); not shown: His6, N-terminal, cleaved; TrxA, N-terminal, cleaved
T1 sequence: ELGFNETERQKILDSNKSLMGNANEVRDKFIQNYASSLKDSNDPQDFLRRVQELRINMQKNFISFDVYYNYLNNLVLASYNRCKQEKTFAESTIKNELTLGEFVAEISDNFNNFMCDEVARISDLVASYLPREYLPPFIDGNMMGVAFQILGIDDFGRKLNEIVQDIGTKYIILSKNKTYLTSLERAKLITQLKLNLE

[21] = target: T2, Cagβ-AAD1 (residues 289-488), wild type (Helicobacter pylori 26695, UniProt O25260 289-488); test: as above; settings: both partners purified
T2 construct: Cagβ (HP0524, Cag5) of Helicobacter pylori 26695, residues 289-488, holds the all-alpha domain (AAD); also called Cagβ-AAD1_WT; Cagβ-AAD1 (289-488); source: E. coli BL21 star (DE3), purified (Ni-NTA, TEV, second Ni-NTA, SEC); not shown: His6, N-terminal, cleaved; TrxA, N-terminal, cleaved
T2 sequence: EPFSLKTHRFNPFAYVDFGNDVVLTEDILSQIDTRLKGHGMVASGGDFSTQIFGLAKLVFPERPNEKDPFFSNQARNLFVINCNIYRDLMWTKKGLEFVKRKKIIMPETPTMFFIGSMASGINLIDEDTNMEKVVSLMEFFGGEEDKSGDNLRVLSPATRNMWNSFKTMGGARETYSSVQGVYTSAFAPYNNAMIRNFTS

[22] = target: T3, Cagβ-AAD1 (all-alpha domain of Cagβ, residues 289–488) (Helicobacter pylori 26695, UniProt O25260 289-488); test: ITC; ITC-200 at 25 °C; 20 mM Tris pH 8.0, 150 mM NaCl; Cagβ proteins (20 µM) in the cell, CagZ proteins or peptides (200 µM) in the syringe; settings: both partners purified
T3 construct: Cagβ (HP0524, Cag5) of H. pylori 26695, residues 289-488, holding the all-alpha domain (AAD); source: E. coli BL21 star (DE3), purified (Ni-NTA, TEV cleavage, second Ni-NTA, SEC); not shown: His6, N-terminal, cleaved; TrxA, N-terminal, cleaved
T3 sequence: T2 sequence

“CagZ (residues 2–199), expressed separately from pET-32a (from UniProt O25261 2-199) (natural protein)” was tested, and the Kd [1] was 70 nM, the Kd [2] was 40 nM and the Kd [3] was 40 nM. It also gave a Kd [4] of 20 nM, a Kd [5] of 1460 nM and a Kd [6] of 20 nM.

In the case of CagZ D125A (natural protein), the Kd [7] is reported as 60 nM.

Molecule CagZ D155A (natural protein) has a Kd [8] of 60 nM.

CagZ E199A (natural protein) was tested, and the Kd [9] was 40 nM.

In the case of CagZ F149A (natural protein), the Kd [10] is reported as 410 nM.

CagZ K85A (natural protein) gave a Kd [11] of 80 nM.

For CagZ N162A (natural protein), the Kd [12] was 40 nM.

CagZ N178A (natural protein) showed a Kd [9] of 150 nM and a Kd [5] of 8770 nM.

Molecule CagZ N178A/Y181A (natural protein) has a Kd [9] of 1500 nM.

For CagZ Q150A (natural protein), the Kd [13] was 50 nM.

CagZ R133A (natural protein) showed a Kd [14] of 20 nM.

In the case of CagZ R159A (natural protein), the Kd [15] is reported as 40 nM.

In the case of CagZ R187A (natural protein), the Kd [9] is reported as 16900 nM.

Work on CagZ S124A (natural protein) yielded a Kd [16] of 20 nM.

CagZ S184A (natural protein) gave a Kd [9] of 70 nM.

CagZ T170A (natural protein) showed a Kd [17] of 90 nM and a Kd [18] of 90 nM.

In the case of CagZ Y81F (natural protein), the Kd [11] is reported as 90 nM.

Molecule CagZ Y181A (natural protein) has a Kd [9] of 560 nM and a Kd [5] of 35700 nM.

“CagZ co-expressed with Cagβ1 from pET-28a (natural protein)” showed a percent of the protein in the 1:1 complex [19] of 88% and a stoichiometry N [19] of 1.

B1: Cagβ-AAD3 (residues 299-488) (domain or fragment)
chain: NPFAYVDFGNDVVLTEDILSQIDTRLKGHGMVASGGDFSTQIFGLAKLVFPERPNEKDPFFSNQARNLFVINCNIYRDLMWTKKGLEFVKRKKIIMPETPTMFFIGSMASGINLIDEDTNMEKVVSLMEFFGGEEDKSGDNLRVLSPATRNMWNSFKTMGGARETYSSVQGVYTSAFAPYNNAMIRNFTS
notes: Cagβ (HP0524, Cag5) of Helicobacter pylori 26695, residues 299-488, holds the all-alpha domain (AAD); also called Cagβ-AAD3 (299-488); source: E. coli BL21 star (DE3), purified (Ni-NTA, TEV, second Ni-NTA, SEC); not shown: His6, N-terminal, cleaved; TrxA, N-terminal, cleaved
B1 showed a Kd [20] of 190 nM.

B2: CagZ (residues 2-199) E199A (natural protein)
chain: T1 sequence with E198A
notes: CagZ of Helicobacter pylori 26695, residues 2-199, with E199A; source: E. coli BL21 star (DE3), purified as the wild type but without TEV protease treatment; not shown: His6, N-terminal, kept; TrxA, N-terminal, kept
Molecule B2 has a Kd [21] of roughly 50 nM.

B3: CagZ-24 (peptide of the CagZ C-terminal tail, residues 176–199) (peptide)
peptide: SKNKTYLTSLERAKLITQLKLNLE
notes: CagZ of H. pylori, C-terminal tail, residues 176-199; source: synthetic peptide (Genscript)
B3 was tested, and the Kd [22] was 330 nM.

B4: CagZ-20 (peptide of the CagZ C-terminal tail, residues 176–195) (peptide)
peptide: SKNKTYLTSLERAKLITQLK
notes: CagZ of H. pylori, C-terminal tail, residues 176-195; source: synthetic peptide (Genscript)
B4 showed a Kd [22] of 42000 nM.

B5: CagZ (residues 2–199), expressed separately from pET-32a (natural protein)
chain: T1 sequence with T7A, K17S
notes: CagZ of H. pylori 26695, residues 2-199; also called WT; full-length CagZ; source: E. coli BL21 star (DE3), purified (Ni-NTA, TEV cleavage, second Ni-NTA, SEC); not shown: His6, N-terminal, cleaved; TrxA, N-terminal, cleaved
With B5 the Kd [22] was 90 nM.
